Numbering of substitutions follows the chain as printed.

Sequences and labels used below:
B1: RecA SOS box (dsDNA)
DNA 1: GATGCCTGCGGATACTGTATGATCATACAGTATCAATTCTGGCT
DNA 2: AGCCAGAATTGATACTGTATGATCATACAGTATCCGCAGGCATC
B2: AT-repeat spacer (dsDNA)
DNA 1: B1 DNA 1 with G21A, A22T, T23A, C24T
DNA 2: B1 DNA 2 with G21A, A22T, T23A, C24T
B3: TGC spacer (dsDNA)
DNA 1: B1 DNA 1 with T20C, A22C, T23G, A25G
DNA 2: B1 DNA 2 with T20C, A22C, T23G, A25G
B4: A-tract spacer (dsDNA)
DNA 1: B1 DNA 1 with T20A, G21A, T23A, C24A, T26A
DNA 2: B1 DNA 2 with A19T, G21T, A22T, C24T, A25T
B5: AT-GC spacer (dsDNA)
DNA 1: B1 DNA 1 with A22C, T23G
DNA 2: B1 DNA 2 with A22C, T23G
B6: -1 spacer (dsDNA)
DNA 1: GATGCCTGCGGATACTGTATATATTACAGTATCAATTCTGGCT
DNA 2: AGCCAGAATTGATACTGTAATATATACAGTATCCGCAGGCATC
B7: GC-repeat spacer (dsDNA)
DNA 1: GATGCCTGCGGATACTGTGCGCGCGCACAGTATCAATTCTGGCT
DNA 2: AGCCAGAATTGATACTGTGCGCGCGCACAGTATCCGCAGGCATC
B8: +1 spacer (dsDNA)
DNA 1: GATGCCTGCGGATACTGTATATATAATACAGTATCAATTCTGGCT
DNA 2: AGCCAGAATTGATACTGTATTATATATACAGTATCCGCAGGCATC

The first series concerns the target T1, LexA (EMSA protein) (Escherichia coli, UniProt P0A7C2 1-202, K156A). The series can be described thus: EMSA. For orientation: Mobility shift assays separate free from complexed probe on a gel.
With B1, the affinity, expressed as Kd, was 1.67 ± 0.26 nM.

B2: the equilibrium dissociation constant (Kd) (as a rule, the equilibrium constant for the complex coming apart) was determined as 0.8 ± 0.27 nM. Compared with the last molecule, the Kd is about 2.1-fold lower.

The molecule B3 registered a Kd of 2.4 ± 0.5 nM.

For the molecule B4, the Kd was found to be 5.64 ± 0.78 nM. Against the preceding molecule, the Kd is about 2.4-fold higher.

As to B5, the Kd came out at 1.59 ± 0.3 nM. This Kd lies about 3.5-fold lower than the previous one.

A further series deals with T1, LexA (EMSA protein). Nature of the series: EMSA. This is another data set of the same source.
On to B6, for which the equilibrium dissociation constant (Kd) is roughly 250 nM.

The molecule B7 yielded a Kd of roughly 100 nM.

For B8, the Kd is roughly 200 nM.

Source of the values: article PMC2921665.
